Measurements published in US20030236190A1 (published 2003).
Starred links: 1 amine or outer side, 2 acyl side, 3 side chain; linkers in the order of their positions; H or OH if unused. Positions of bridges follow the written chain, without caps; N, C: chain ends. Non-standard residues stand in square brackets, D forms with d. Primed or numbered codes have the meaning given here. Chains are numbered I, II in the order given. No end group written: not given here. Lig′ = lysine with a 2-aminohydroxyacetyl group (CO-CH2-O-NH2) on the side-chain amino group, O=C(CON[*:3])NCCCC[C@H](N[*:1])C(=O)[*:2]; Hyp = O=C(O)[C@@H]1C[C@@H](O)CN1; Tic = O=C(O)[C@@H]1Cc2ccccc2CN1; Cha = N[C@@H](CC1CCCCC1)C(=O)O; linker 14 = not defined here; Ac6c = NC1(C(=O)O)CCCCC1; Aic′ = not defined here; Aib = CC(C)(N)C(=O)O

Target: T1, human insulin receptor (HIR) (human, UniProt P06213 28-1382, limits assumed)
T1 construct: Detergent-solubilised receptor; The natural receptor is an alpha2-beta2 heterotetramer cleaved from one precursor
Experiment: 125I-insulin displacement, solubilised HIR

Binder | Kd [nM]
WQGYAWLS [S316] | 7000
S172 (N-terminal Lig coupled to linker 14, dimer, N-N) peptide 1: XFHENFYDWFVRQVSKK peptide 2: XFHENFYDWFVRQVSKK | 4800
QAPSNFYDWFVREWDEE [S287] | 5900
SSNFYQALMLLS [S129] | 2900
SGPFYEE[Ac6c]ELLW[Aib]G (printed: SGPFYEE-Acy-ELLW-Aib-G) [S303] | 5700
HDPFYSMMKSLLK [S120] | 2000
PLCFLQELFGGASLGGYCSG [S262] | 19000
HPSTNQMLMKLFK [S123] | 16000
EHWNTVDPFYFTLFEWLRESG [S177] | 2700
PLAELWAYFEHSEQGRSSAH [S174] | 16000
[Ac6c]CLEEWGASL[Tic]QCSG (cysteine pairing not given here) [S256] | 9000
GGSFYDD[Ac6c]E[Aib]LW[Aib]G (printed: GGSFYDD-Acy-E-Aib-LW-Aib-G) [S304] | 21000
ANFYDWFVAELG [S242] | 2000
HETFYSMIRSLAK [S117] | 2700
HPPLSELKLFLIKK [S124] | 23000
GRVDWLQRNANFYDWFVA [S250] | 8900
GRVDWLQRNANFYDWFV [S251] | 5600
SDGFYNAIELLS [S118] | 2400
NSFYEALRMLSSK [S121] | 3100
S218 (linker I:10-II:10 via linker 14; not fully specified; reading uncertain, dimer, C-C) peptide 1: AFYDWFAKK[Lig′] peptide 2: AFYDWFAKK[Lig′] | 11000
NFYDWFVAELG [S243] | 2000
AAAAFYDWFAAAAAKK [S168] | 3800
QSFYDYIEELLGGEWKK [S288] | 4300
CGFHENFYDWFVRQVSKK (also called 3171 (so in the source)) [S171] | 2900
DLRVLCELFGGAYVLGYCSE [S281] | 11000
GRVDWLQRNANFYDWFVAE[Ac6c]G [S306] | 2200
HPTSKEIYAKLLK [S122] | 9300
RWPNFYGYFESLLTHFS [S257] | 14000
LDRQFYRYFQDLLVGFM [S260] | 2300

Now those with a lower Kd, led by results:

Kd [nM] | Binder
1800 | SLNFYDALQLLAKK [S119]
1600 | QLEEEWAGVQCEVYGRECPS [S226]
1600 | NANFYDWFVAELG [S241]
1600 | S255 (not fully specified; C-terminal Lig′ coupled to linker 14, dimer, C-C) peptide 1: SDGFYNAIELLSGGGX peptide 2: SDGFYNAIELLSGGGX
1000 | FHENFYDWFVRAVSKK [S107]
900 | S290 (not fully specified; N-terminal Lig′ coupled to linker 7, dimer, N-N) peptide 1: XGGGFHENFYDWFVRQVSKK peptide 2: XGGGFHENFYDWFVRQVSKK
870 | D[Aic′]D[Aib]EFYDWFDE[dI]P[dQ] [S319]
860 | SDGFYNA[Ac6c]ELLSG (printed: SDGFYNA-Acy-ELLSG) [S302]
850 | LQRNANFYDWFVAELG [S238]
850 | WLQRNANFYDWFVAELG [S237]
840 | N[Aib]PFYDE[Ac6c]DE[Cha]W[Aib]G (printed: N-Aib-PFYDE-Acy-DE-Cha-W-Aib-G) [S305]
830 | WLEHEWAQIQCELYGRGCTY [S285]
810 | FHENFYDWFVRQVSK (also called D117/H2C) [S158]
750 | S292 (not fully specified; N-terminal Lig′ coupled to linker 12, dimer, N-N) peptide 1: XGGGFHENFYDWFVRQVSKK peptide 2: XGGGFHENFYDWFVRQVSKK
750 | FHENFYDWFVAQVSKK [S108]
740 | GRVDWLQRNANFYDWFVAE [S249]
700 | S170 (bridge I:1-II:1; also: homodimer, N-N, linked at cysteines, type of link not given here, dimer, N-N; also called 3170 (so in the source)) peptide 1: CGFHENFYDWFVRQVSKK peptide 2: CGFHENFYDWFVRQVSKK
650 | EFHENFYDWFVRQVSEE [S115]
640 | S301 (N-terminal Lig′ coupled to linker 14, dimer, N-N) peptide 1: XDWLQRNANFYDWFVAEL peptide 2: XDWLQRNANFYDWFVAEL
610 | FAENFYDWFVRQVSKK [S112]

Kd [nM] | Binder
590 | AHENFYDWFVRQVSKK [S113]
580 | S169 (N-terminal Lig coupled to linker 12, dimer, N-N) peptide 1: XFHENFYDWFVRQVSKK peptide 2: XFHENFYDWFVRQVSKK
540 | QSDSGTVHDRFYGWFRDTWAS [S179]
470 | NGVERAGTGDNFYDWFVAQLH [S176]
450 | RD[Hyp]FYDWFDD[dI] (printed: RD-Hyp-FYDWFDDi) [S268]
420 | FHENFYDWFVRQASKK [S106]
310 | FHENFYDWFVRQVAKK [S105]
270 | S231 (not fully specified; C-terminal Lig′ coupled to linker 14, dimer, C-C) peptide 1: FHENFYDWFVRQVSKKGGGX peptide 2: FHENFYDWFVRQVSKKGGGX
260 | S233 (not fully specified; C-terminal Lig′ coupled to linker 14, heterodimer F1-F2, C-C) peptide 1: FHENFYDWFVRQVSKKX peptide 2: SDGFYNAIELLSX
190 | IQGWEPFYGWFDDVVAQMFEE [S264]
130 | RVDWLQRNANFYDWFVAELG [S234]
130 | EHWNTVDPFYQYFSELLRESG [S178]
130 | DWLQRNANFYDWFVAELX (C-terminal Lig′) [S294]
120 | S293 (not fully specified; N-terminal Lig′ coupled to linker 13, dimer, N-N) peptide 1: XGGGFHENFYDWFVRQVSKK peptide 2: XGGGFHENFYDWFVRQVSKK
110 | TGHRLGLDEQFYWWFRDALSG [S265]
100 | DWLQRNANFYDWFVAELG [S236]
63 | GRVDWLQRNANFYDWFVAEL [S248]
53 | VDWLQRNANFYDWFVAELG [S235]
44 | S229 (not fully specified; C-terminal Lig′ coupled to linker 12, heterodimer F2-F4, C-C) peptide 1: SDGFYNAIELLSX peptide 2: KHLCVLEELFWGASLFGYCSGKKX
